Data from patent US20140336363A1 (Hoffmann-La Roche, published 2014).
Where a chain is given by its changes, count along the chain named. Read-outs that look alike come from different tables or passages of the source.

B1: <CSF-1R>10H2.2F12 (antibody, V domains shown)
VH: QVQLKQSGPGLVQPSQSLSITCTVSGFSLTTYGINWVRLSPGKGLEWLGMIWRGGNTDYNAAFMSRLTITKDNSKNHVFFQLNSLQPDDTAIYFCAKSGGLRLYYAMDYWGQGTSVTVSS
VL: DVVMTQPPLSLPVSLGDQASISCRSSQSLVHSNGNTYLHWYLQKPGQSPKLLIYKVSNRLSGVPDRFSGSGSGTDFTLKISRVEAEDLGVYFCSQSSHVPWTFGGGTKLEIRR
notes: Mouse monoclonal antibody from a hybridoma
B2: <CSF-1R>9D11.2E8 (antibody, V domains shown)
VH: DVKLVESGGGLVKLGGSLKLSCAASGFTFSSYYMSWIRQTPDKRLELVAAIKTNGDNFDYPDTVKGRFTISRDNAKNTLYLQMNSLKSEDTALYYCARSQLLRYYAMDYWGQGTSVTVSS
VL: B1 VL with P7T, L60F, R82S, R112K
notes: Mouse monoclonal antibody from a hybridoma (NMRI mice), captured by anti mouse Fc-gamma in SPR; also called deposited antibody DSM ACC2920

Tests used:
[1] = target: mutant CSF-1R L301S Y969F (human) (UniProt P07333); assay: cell-based or functional assay
Chain of mutant CSF-1R L301S Y969F (human) (P07333 20-972 L301S/Y969F limits assumed): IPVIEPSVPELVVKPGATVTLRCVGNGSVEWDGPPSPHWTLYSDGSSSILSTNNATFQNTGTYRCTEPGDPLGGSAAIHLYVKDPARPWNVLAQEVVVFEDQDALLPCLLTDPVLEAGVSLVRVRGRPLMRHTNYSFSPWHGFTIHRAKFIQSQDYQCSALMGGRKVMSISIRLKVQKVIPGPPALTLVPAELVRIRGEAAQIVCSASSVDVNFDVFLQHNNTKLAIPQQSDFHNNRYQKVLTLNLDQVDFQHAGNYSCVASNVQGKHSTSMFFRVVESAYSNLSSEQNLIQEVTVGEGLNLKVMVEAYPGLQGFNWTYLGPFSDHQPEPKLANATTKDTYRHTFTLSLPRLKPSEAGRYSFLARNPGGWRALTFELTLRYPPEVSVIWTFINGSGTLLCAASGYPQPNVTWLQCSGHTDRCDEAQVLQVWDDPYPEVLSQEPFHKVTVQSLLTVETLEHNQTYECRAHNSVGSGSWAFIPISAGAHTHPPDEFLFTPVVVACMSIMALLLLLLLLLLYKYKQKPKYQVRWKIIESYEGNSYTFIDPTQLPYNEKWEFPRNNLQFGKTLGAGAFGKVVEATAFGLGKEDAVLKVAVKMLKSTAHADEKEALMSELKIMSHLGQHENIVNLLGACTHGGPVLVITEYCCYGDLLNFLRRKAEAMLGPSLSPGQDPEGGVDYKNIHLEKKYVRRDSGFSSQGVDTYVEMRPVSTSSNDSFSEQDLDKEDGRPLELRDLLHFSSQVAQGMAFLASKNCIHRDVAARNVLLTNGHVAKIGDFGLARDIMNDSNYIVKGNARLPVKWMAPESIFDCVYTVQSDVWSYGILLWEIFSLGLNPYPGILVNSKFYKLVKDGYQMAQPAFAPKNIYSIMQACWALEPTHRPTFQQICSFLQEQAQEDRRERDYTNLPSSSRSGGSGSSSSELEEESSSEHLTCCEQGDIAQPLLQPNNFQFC

[2] = target: T1, full-length wildtype CSF-1R (wt CSF-1R) (human, UniProt P07333 20-972); assay: cell-based or functional assay
T1 sequence (P07333 20-972 limits assumed): as the sequence (P07333 20-972 L301S/Y969F limits assumed) above, with S282L, F950Y counted along it

[3] = target: CSF-1R ECD (R&D-Systems 329-MR or in-house subcloned pCMV-presS-HisAvitag-hCSF-1R-ECD) (human) (UniProt P07333); assay: SPR (BIACORE A100), 35 C, antibody captured, CSF-1R ECD in solution
Chain of CSF-1R ECD (R&D-Systems 329-MR or in-house subcloned pCMV-presS-HisAvitag-hCSF-1R-ECD) (human) (P07333 20-517 limits assumed): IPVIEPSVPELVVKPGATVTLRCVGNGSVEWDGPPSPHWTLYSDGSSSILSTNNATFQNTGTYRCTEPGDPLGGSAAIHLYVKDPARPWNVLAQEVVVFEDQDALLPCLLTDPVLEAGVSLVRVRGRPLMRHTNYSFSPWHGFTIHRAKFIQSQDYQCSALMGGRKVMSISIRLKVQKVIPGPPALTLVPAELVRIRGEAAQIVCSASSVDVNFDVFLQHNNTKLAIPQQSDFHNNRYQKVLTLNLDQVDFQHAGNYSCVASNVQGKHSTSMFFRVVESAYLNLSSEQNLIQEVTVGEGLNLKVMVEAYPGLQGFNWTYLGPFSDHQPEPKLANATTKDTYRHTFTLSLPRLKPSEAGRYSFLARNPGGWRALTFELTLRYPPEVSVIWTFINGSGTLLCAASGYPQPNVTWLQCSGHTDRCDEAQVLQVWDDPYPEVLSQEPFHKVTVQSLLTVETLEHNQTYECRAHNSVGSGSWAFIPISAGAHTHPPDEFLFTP

[4] = target: huCSF-1R-huFc chimera (soluble extracellular domain) (human) (UniProt P07333); assay: competition ELISA: antibody on plate-bound huCSF-1R-huFc, then 3 ng/ml CSF-1
Chain of huCSF-1R-huFc chimera (soluble extracellular domain) (human) (P07333 20-517, change not shown): as the sequence (P07333 20-517 limits assumed) above

[5] = target: CSF-1R ECD (R&D-Systems 329-MR or in-house subcloned pCMV-presS-HisAvitag-hCSF-1R-ECD) (human) (UniProt P07333); assay: SPR cross-competition, 25 C; second antibody on CSF-1R held by captured Antibody 1; competitor <CSF-1R>9D11.2E8
[6] = target: CSF-1R ECD (R&D-Systems 329-MR or in-house subcloned pCMV-presS-HisAvitag-hCSF-1R-ECD) (human) (UniProt P07333); assay: SPR cross-competition, 25 C; second antibody on CSF-1R held by captured Antibody 1; competitor <CSF-1R>10H2.2F12
[7] = target: CSF-1R ECD (R&D-Systems 329-MR or in-house subcloned pCMV-presS-HisAvitag-hCSF-1R-ECD) (human) (UniProt P07333); assay: SPR cross-competition, 25 C; second antibody on CSF-1R held by captured Antibody 1; competitor SC-02, clone 2-4A5
[8] = target: T2, CSF-1R ECD (D1-D3) (human, UniProt P07333 20-296, limits assumed); assay: as in WO2011070024, Example 10 (method not told here)
T2 construct: also called domains D1 to D3 of the extracellular domain of human CSF-1R
T2 sequence (P07333 20-296 limits assumed): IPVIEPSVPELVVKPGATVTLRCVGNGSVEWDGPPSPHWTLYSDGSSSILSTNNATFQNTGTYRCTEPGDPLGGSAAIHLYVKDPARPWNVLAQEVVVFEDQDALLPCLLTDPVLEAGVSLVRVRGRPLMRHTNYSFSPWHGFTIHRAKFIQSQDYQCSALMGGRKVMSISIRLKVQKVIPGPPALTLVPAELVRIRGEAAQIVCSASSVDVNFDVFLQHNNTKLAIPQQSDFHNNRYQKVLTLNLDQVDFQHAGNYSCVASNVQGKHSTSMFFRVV

[9] = target: T3, CSF-1R ECD (R&D-Systems 329-MR or in-house subcloned pCMV-presS-HisAvitag-hCSF-1R-ECD) (human, UniProt P07333 20-517); assay: SPR (BIACORE A100), 35 C, antibody captured, CSF-1R ECD in solution
T3 construct: also called CSF-1R (R&D-Systems Cat. No. 329-MR); human CSF-1R Extracellular Domain (comprising domains D1 to D5)
T3 sequence (P07333 20-517 limits assumed): as the sequence (P07333 20-517 limits assumed) above
Protocol: CSF-1R ECD (R&D-Systems 329-MR or in-house subcloned pCMV-presS-HisAvitag-hCSF-1R-ECD were added in various concentrations in solution. Association was measured by an CSF-1R-injection of 1.5 minutes at 35° C.; dissociation was measured by washing the chip surface with buffer for 10 minutes at 35° C. Anti CSF-IR SC-02, clone 2-4A5 (Santa Cruz Biotechnology, US; see also Sherr, C. J., et al., Cell 41 (1985) 665-676), which inhibits the ligand-receptor interaction, was used as reference control.

[10] = target: T1, full-length wildtype CSF-1R (wt CSF-1R); assay: cell-based or functional assay; remark: listed apart in the source
[11] = target: T1, full-length wildtype CSF-1R (wt CSF-1R); assay: cell-based or functional assay; remark: listed apart in the source
[12] = target: T4, huCSF-1R-huFc chimera (soluble extracellular domain) (human, UniProt P07333 20-517); assay: competition ELISA: antibody on plate-bound huCSF-1R-huFc, then 3 ng/ml CSF-1
T4 construct: Captured on the plate by anti Fc-gamma; also called huCSF-1R ECDhuFc chimera; not shown: human Fc part
T4 sequence (P07333 20-517, change not shown): as the sequence (P07333 20-517 limits assumed) above
Protocol: At the beginning, plates were coated with […] goat F(ab′)₂ biotinylated anti Fcγ (Jackson ImmunoResearch., Cat. No. 109-006-170) for 1 hour (h).
Thereafter the wells were blocked with PBS supplemented with 0.2% Tween®-20 and 2% BSA (Roche Diagnostics GmbH, DE) for 0.5 h. 75 ng/ml of huCSF-1R-huFc chimera (soluble extracellular domain) was immobilized to plate for 1 h. Then dilutions of purified antibodies in PBS/0.05% Tween20/0.5% BSA were incubated for 1 h. After adding a mixture of 3 ng/ml CSF-1 (Biomol, DE, Cat. No. 60530), 50 ng/ml biotinylated anti CSF-1 clone BAF216 (R&D Systems, UK) and 1:5000 diluted streptavidin HRP (Roche Diagnostics GmbH, DE, Cat. No. 11089153001) for 1 h the plates were washed 6 times with PBST. Anti CSF-IR SC-02, clone 2-4A5 (Santa Cruz Biotechnology, US), which inhibits the ligand-receptor interaction, was used as positive control. Plates were developed with freshly prepared BM Blue® POD substrate solution (BM Blue®:3,3″-5,5″-Tetramethylbenzidine, Roche Diagnostics GmbH, DE, Cat. No. 11484281001) for 30 minutes at RT. Absorbance was measured at 370 nm. […] Anti CSF-IR SC-02, clone 2-4A5 (Santa Cruz Biotechnology, US), which inhibits the ligand-receptor interaction, was used as reference control.

Molecule	% Inhibition of growth of NIH3T3-wtCSF-1R cells, 10 µg/ml antibody [2] [%]	% inhibition of CSF-1 induced growth of BeWo cells, 10 µg/ml antibody concentration [2] [%]	% survival of NIH3T3-wtCSF-1R cells, 10 µg/ml antibody (CellTiterGlo) [2] [%]	IC50 CSF-1R Phosphorylation (CSF-1-induced, NIH3T3-CSF-1R cells, ELISA of lysate) [2] [µg/mL]	IC50 of inhibition of survival of human monocytes with huCSF-1 (CellTiterGlo) [2] [nM]	% Inhibition of growth of NIH3T3-mutant CSF-1R cells, 10 µg/ml antibody [1] [%]	% survival of NIH3T3-mutant CSF-1R cells, 10 µg/ml antibody (CellTiterGlo) [1] [%]	binding result [8]	Kd [9] [nM]	koff [9] [s⁻¹]	kon [9] [M⁻¹ s⁻¹]	t1/2 [9] [min]	further results
goat polyclonal anti-CSF-1R antibody ab10676 (abcam)													percentage of inhibition the growth of NIH3T3-mutant CSF-1R L301S Y969F recombinant cells, up to 20 µg/ml [1]: < 0%
Anti CSF-1R SC-02, clone 2-4A5 (Santa Cruz Biotechnology, US) (antibody)	38	40	62	0.412	2.4	34	66						Kd [3]: 2.73 nM; koff [3]: 0.00139 s⁻¹; kon [3]: 509000 M⁻¹ s⁻¹; t1/2 [3]: 8.31 min; IC50 [4]: 0.0309 µg/mL; percentage (%) of expected binding response [5]: 37%; percentage (%) of expected binding response [6]: 42%; percentage (%) of expected binding response [7]: -2%
B1	97	100	3	0.0445	0.6	65	35	no binding	0.78	0.0004	520000	28.6	
B2								no binding	0.77	0.00036	470000	32	IC50 CSF-1R Phosphorylation (CSF-1-induced, NIH3T3-CSF-1R cells, ELISA of lysate) [10]: 0.0728 µg/mL; IC50 of inhibition of survival of human monocytes with huCSF-1 (CellTiterGlo) [11]: 0.7 nM; IC50 [12]: 0.01 µg/mL
